Tests used:
hIL-6R = target: T1, hIL-6R (Homo sapiens, UniProt P08887); assay: IgG ELISA, binding to hIL-6R in the presence or absence of each small molecule, amino acid or amino acid metabolite
T1 sequence (P08887 20-355 limits assumed): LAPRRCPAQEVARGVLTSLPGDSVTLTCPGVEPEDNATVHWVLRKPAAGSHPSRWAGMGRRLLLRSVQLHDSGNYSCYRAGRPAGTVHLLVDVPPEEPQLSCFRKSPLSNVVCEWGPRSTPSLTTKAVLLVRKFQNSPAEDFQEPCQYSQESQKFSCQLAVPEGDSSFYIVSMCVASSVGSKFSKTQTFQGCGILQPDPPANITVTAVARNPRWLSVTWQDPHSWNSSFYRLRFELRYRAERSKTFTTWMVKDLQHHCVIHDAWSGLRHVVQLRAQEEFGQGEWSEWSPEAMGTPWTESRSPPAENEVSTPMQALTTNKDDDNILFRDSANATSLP
Method: Three types of antibodies obtained: 6RNMSC1-2_F02 and 6RNMSC1-3_G02, and GC413 were subjected to ELISA under the nine conditions described in Table 3. Meanwhile, each small molecule was appropriately prepared at the concentrations shown in Table 3 using the buffers indicated in Table 19. The antigen used was biotin-labeled hIL-6R.
First, a StreptaWell 96 microtiter plate (Roche) was coated at room temperature for one hour or more with 100 μl of PBS containing biotin-labeled hIL-6R. After washing with Wash buffer to remove unbound biotin-labeled hIL-6R from the plate, each well was blocked for one hour or more with 250 μl of Blocking Buffer. After Blocking Buffer was removed from each well, the purified IgGs were prepared to 2.5 μg/ml in Sample Buffer containing small molecules at the final concentrations shown in Table 3, and each was aliquoted at 100 μl into the plate. The plate was allowed to stand at room temperature for one hour to allow binding of each IgG to biotin-labeled hIL-6R in each well. After washing with Wash Buffer containing small molecules at the final concentrations shown in Table 3, an HRP-conjugated anti-human IgG antibody (BIOSOURCE) diluted with Sample Buffer containing the same small molecules was added to each well. The plate was incubated for one hour. Following wash with Wash Buffer containing each small molecule, the TMB single solution (ZYMED) was added to each well. The chromogenic reaction in the solution of each well was terminated by adding sulfuric acid. Then, the developed color was assessed by measuring absorbance at 450 nm.
6RNMSC1-2_F02 described in Example 14, which has antigen-binding activity in the presence of kynurenine, and negative control GC413 were subjected to ELISA under the seven conditions described in Table 18. Meanwhile, each small molecule was appropriately prepared at the concentrations shown in Table 18 using the buffers indicated in Table 4. The antigen used was biotin-labeled hIL-6R. ELISA was carried out using the method described in Example 11.

[1] = system: BaF/hIL6R (Ba/F3 cells expressing human IL-6 receptor); assay: ADCC (chrome release) with human PBMC as effector cells against BaF/hIL6R cells; format: cell-based
Method: Variant 6RNMSC1-2_F02 with increased effector activity (the heavy chain and light chain sequences are shown in SEQ ID NOs: 94 and 91, respectively) was used. At various concentrations of 6RNMSC1-2_F02, ADCC activity against hIL-6R-expressing cells was assayed in the presence or absence of kynurenine according to the method described in Reference Example 1.
Furthermore, there is a difference in the kynurenine concentration between normal and tumor tissues, and thus it is preferable that the ADCC activity of an antibody is exerted against antigen-expressing tumor cells only at the kynurenine concentration in tumor tissues, while at the normal-tissue kynurenine concentration, the ADCC activity is impaired or not exerted. Then, 6RNMSC1-2_F02 was assessed for ADCC activity against hIL-6R-expressing cells at various kynurenine concentrations according to the method described in Reference Example 2. […] Furthermore, in contrast to the approximately 10% ADCC activity at 4 to 6 μM which is considered to be the kynurenine concentration in normal tissues, the ADCC activity at 30 to 40 μM which is considered to be the kynurenine concentration in tumor tissues was about 25%.
Antibodies that bind antigens in a kynurenine-dependent manner were assessed for their ADCC activity against antigen-expressing cells at different antibody concentrations according to the method described below. Human peripheral blood mononuclear cells (hereinafter referred to as human PBMC) were used as effector cells to measure the ADCC activity of each test antibody as follows.
Syringes pre-filled with 200 μl of 1000 units/ml heparin solution (Novo-Heparin 5000 units for Injection; Novo Nordisk) were used to collect 50 ml of peripheral blood from healthy volunteers (male adult) affiliated with Chugai Pharmaceutical Co. Ltd. The peripheral blood was diluted two-fold with PBS(−), and divided into four equal parts, each of which was transferred into a pre-centrifuged leukocyte separation tube Leucosep (Greiner Bio-One) containing 15 ml of Ficoll-Paque PLUS. The separation tubes containing an aliquot of the peripheral blood were centrifuged at 2150 rpm for ten minutes at room temperature. Then, the resulting mononuclear cell fractions were collected from the tubes. The cells in each fraction were washed once with RPMI-1640 (nacalai tesque) supplemented with 10% FBS (hereinafter referred to as 10% FBS/RPMI), and then suspended at a cell density of 1×10^7 cells/ml in 10% FBS/RPMI. The cell suspensions were used as the human PBMC solution in subsequent experiments. […]
ADCC activity was assessed based on specific chrome release rate determined by chrome release assay. […]

B1: 6RNMSC1-2_F02: antibody that binds to hIL-6R in the presence of kynurenine; SEQ ID NOs: 86 and 87 (antibody, listed as Homo sapiens, V domains shown)
VH: QVQLVQSGAEVKKPGSSVKVSCKASGGTFSSYAISWVRQAPGQGLEWMGGIIPIFGTANYAQKFQGRVTITADESTSTAYMELSSLRSEDTAVYYCARDAPVVARPRGAFDIWGQGTMVTVSS
VL: DIVMTQTPLSSPVTLGQPASISCRSSQSLVHSDGNTYLSWLQQRPGQPPRLLIHEISNRFSGVPDRFSGSGAGTNFTLKISRVEAEDVGVYYCMQATQFPRTFGQGTKVEIK
absorbance under condition 5 compared to condition 1 (hIL-6R; Table 18: condition 5 (3-hydroxykynurenine solution)): the same high absorbance | absorbance under condition 7 as compared to condition 1 (hIL-6R; Table 18: condition 7 (absence of small molecules) vs condition 1 (kynurenine solution)): markedly lower | absorbance under other conditions (hIL-6R; Table 18: remaining conditions, incl. tryptophan): markedly lower | absorbance under condition 7 compared to condition 8 (hIL-6R; condition 7 (100 μM kynurenine)): the same | absorbance under condition 9 as compared to condition 8 (hIL-6R; condition 9 (in the absence of small molecules) vs condition 8 (complete small molecule cocktail solution)): markedly lower | absorbance under other conditions (hIL-6R; remaining conditions of Table 3): markedly lower | ADCC activity ([1]; at 4 to 6 μM kynurenine (considered the concentration in normal tissues)): approximately 10% | ADCC activity ([1]; at 30 to 40 μM kynurenine (considered the concentration in tumor tissues)): about 25% | ADCC activity against hIL-6R-expressing cells ([1]; in the presence of kynurenine, various antibody concentrations, variant with increased effector activity): induced by 6RNMSC1-2_F02 in an antibody concentration-dependent manner | ADCC activity against hIL-6R-expressing cells at various kynurenine concentrations ([1]; various kynurenine concentrations): kynurenine concentration-dependent manner

From patent publication US11673947B2, “Target tissue-specific antigen-binding molecule” (Chugai Seiyaku Kabushiki Kaisha, priority 2012, dated 2023)
